Test results: a protein production outcome set (Wang et al. 2014)

Test: label from the status in PepcDB records
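Further: failed if final PepcDB status was selected cloned or expressed and not failed if soluble or beyond.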

Row | Sequence | protein production
1 | MSKVIYKISIDLGGIVKRNFEKETKNCGKVNEEVLFKILKSNDKSEIGIKFKFKDIKSIRQFKDSVPITEYKDYEKYINRMADGEGNVLMSEKVEYFGHTSGTTGKQKLVPCTKNSRRRASKYMALLVNRFCYDNFKENWNYARGMMIADIVMTTYTKGKIPICSATSGGMKGIKHLLPYLYTSPIEVMEIKDKETALYLHLLFGLEEEELLYISGVFISNILDLFRTLEKNNKALVRDIQKGSISEELNIDEGLRKVLNKKLKPNNKRAMELEKEFKKGFKGIAKRIWPNLLYIASVTGANFSIYNDKVYYYIDSIPIYSAAYGSTEAMIGINPYASKVLYVITPSAVFYEFIPIGEKGEESFDTLLLSELKLGGRYEVVITNYAGLYRYKIGDVVKVVGFYNKCPEIEFLYRKNQVLNMAAEKTNEEHLTYAIKNTIKKLNLDLVDYTTEPDNSITPGRYIFYFEFRNNMYGFSTEKLQNILDDELRVSNLAYNRARNNKKLGMLKVEVLAPNTFDLIKEALFNKGISKNQIKIPRVIINNKIVMDIINRNKIKFVKKSVI | failed
2 | MSTVNGANIQSEEQHTGGCSAGCSGGSTGGSTDGSTGGNTQQGCSCDTHDEQRDGSVAAQTFGEEGPVKTLGRIGSKLVVLSGKGGVGKSTVAVNLAVGLARAGRKVGLLDVDVHGPSVPRLLGLTGTRPMIGEDAMYPVGWRNNLRVMSLGFFLPDPEQAVIWRGPVKMGLIRHFLTEVRWGDLDHLVVDCPPGTGDEPLSVLQLLGTDAQAVIVTTPQGVAVDDVRRSVGFCRELGNPILGIVENMGGYVCPKCGELTPLFPAGGGEALAAEQGVTFLGRIPLHPDLTSAGDAGRSLYEADAAHPIVRALAPIVERAAATLHASDIRHESTTGPQSEAAPGTGKTAATMPTAPTRNESCAPATNHPDTNGDTTMKIAIPVAGDVLCQHFGHCERFALIDVDPATGSVTGRNDVTPPPHEPGLLPVWLSEKGANLVIAGGMGARARALLEERGVKVLIGAPAAAPEAIVAAHMAGTLTLGANTCDH | failed
3 | MKKIHLNKWKHKTSLYLMLFCLSLPLALTPLSVSATEKETESEQTAPTSQKDASETTSETQTVESSTNDQNQNNSTISLPESSSTTSLAPSESLTSDSKKLAQKEEVVASTTVAEPKAAASSTISVPDPNLKQTILSTLGLATTAELTQTDMDKLTNLTLNSVDIYSLVGLEHATNLSSIYINVNNKITDFTPLESLTKLTFVTLQTSSLTSDNFPNLTASQGLTNLSIGGTSVDNSVLAKIVNLKALVRLYMDSNMNITNIEPLKVLPNLKSLSVQFCGITDFTVIKDFPIMSDLAAFGQNTGRNDPPTTVTRSSLKYNEDEQSVYIPFSMMPNRMTNFDGYIPPFSTSNSASNTYFDFNGTQLPASRLQIDDNGITINSVSPEEYQGIKSFEYNARLNNPAGTYAVPDGYTFYAISSGTYLHQFDVVDDGAPVTVKYQDENGQELAPSELLNGYVGATYNSKELSFQGYSLIKVDGDATGKFTDSPQTVTYIYQKNAKLLGQVTVKYIDTDGKALFGDVIQTGNIGETYHTEKKELTGYTFKNIIGNASGQYTNSPQTVTYVYEKNANPNKPEEVIPDSSDKNNVNPDSRENETTKGSKTVKDKESVVTSKEKNLPETGDKEQGMKKITLFGSFLLILGSLVLFIRFRKVD | failed
4 | MVSYPVWDSAMFAYTISSHILLVTLTLGLALLITISEFIGIKYKNRYFLTLARKASTALVINFAVGTASGIFMAVELYLFWPEFMKVVGAVAMSAFYAEVFAFLLESITLMMYVYFWDNFKNRWNHWLTSIGVLVGTGGSAALITDVNAWMNTPEGSFNIPYYLKTGIITDVNPWKVFWEPSTFAEQFHMYAVEYFAGSMMLLGYFAYKYLRSSGADERLVYSAGLKILSVIAIIDIIIVGASGSNELDTLLVVEPLKYAALEQDMVPVTYGAPEHIFGIIINGHPAYYVNLPLAQSLLAYPFTFGHGYIPGLSSYPSSVWPPSFVHDTLDLMVGFGLLMGFFWLIVVIMYFMKKDPLNKRSVLKALMFFSGMAVYTMEDGWYTAEVGRVPGIILYDKPPYYVMTIGQAASTSPVVFPLGMAIIIFYIVLIPLTLYFMAKVLKVSNIEDDLRHADDDLSKVGKSTPAGMR | failed
5 | MSELSTEAPAQSAKPTIYFDGVSSRRRQVTLTLGDALEIVEEGATPVRWAYADIRRADSPAGILRLASTFAPPLARLEIRDTALAADVSVRCMRLDEHQTTRRGIAKIVGWSVAAAVSIVCVVLFGVPLAADRLAPLVPKPIERRIGDASEVQVKTIFGGRTCEDPAGKAAFTKLVNRLRDAAGLDDDSMTAGVLPTSVPNAFALPGGKVFLLQGLLDRAESPDELAGILAHELGHLKHHDNMRGLIYNGGTSFLIGLLFGDVTGSSAVIFASRSVVEASYSREAETGADTFAIDIMHALGRSPRPSAELMFRITGKEGGSGFTILSSHPLTEDRLARMTKEDRPVSGPPLLTDAEWRALKGICGSGKI | failed
6 | MLSTSRSRFIRNTNESGEEVTTFFDYDYGAPCHKFDVKQIGAQLLPPLYSLVFIFGFVGNMLVVLILINCKKLKCLTDIYLLNLAISDLLFLITLPLWAHSAANEWVFGNAMCKLFTGLYHIGYFGGIFFIILLTIDRYLAIVHAVFALKARTVTFGVVTSVITWLVAVFASVPGIIFTKCQKEDSVYVCGPYFPRGWNNFHTIMRNILGLVLPLLIMVICYSGILKTLLRCRNEKKRHRAVRVIFTIMIVYFLFWTPYNIVILLNTFQEFFGLSNCESTSQLDQATQVTETLGMTHCCINPIIYAFVGEKFRRYLSVFFRKHITKRFCKQCPVFYRETVDGVTSTNTPSTGEQEVSAGL | failed
7 | MPPQPDAAPPPLPPELAPLLPTDPVTIGPFRVIGRLGSGGMGAVYGALDAEHRCVAVKVIHAEHVRRPEYRELFAREAELVSRIDAECTPRFLGADPNAPEPWLATEFVPGRTLQQHVREFGPLDEAALRAFAAGTAEALAAIHAAGVVHLDVKPGNIMLAPDGPKVLDFGIARAIGDTTDKNVYGTPGWAAPERLDRQPGTPAADMFAWGGLIVFAATGRSPFGTGTSAELLERVRAGDCDLTGVPEELMELVARALSTDPEARPTAVEAFHTVLALDTVAADAIEEPGEDAAAIHRKRLRALLHRVWTGFDAAGHRPELWMALGTAAGGVGVAAGGAAALATQGTAGGGAAAGSGKLVGTASAAGGGASWGAGAGTLTKSATVTAAGTGLSGKAMLTVAAGATAAAVAGGWLVGRAVTDQPLLPFTDPEPSATAALAPSPEEDEKEGQEVRFRNLTLWFPEDWTVHVIEDIEFVGFGPDHEGREIVDDWIAAHPPGNPGCAEVDWNHWEWPAALVECPHIRILGPGGITYGGAVYEPITEEPDAGLFAPSQNPLPCIPGIDAYEADPASFPGQSPLVEELAPVGDRSALYREYLTPCGNPDGRDPELLYYTQRSWFLPESQILIVDEYGIEDIDAILADGEFASRSEED | failed
8 | MCDTFVEFIQLEETVKHDENGKPVKRLRRRETLVHSENVAGRSFWNEHSSLHKDLGHFAKDIGKIEPDYVKSFQFESRLLPLTWVVVRIDGCHFHRFSEVHEFEKPNDEQALKLMNSCAVAVLEEFQDIAFAYGVSDEFSFVLKNKSELYKRQSSKIISAVVSFFTSTYMMRWGDFFPHKKLKYPPSFDGRAVCYPTSDILLDYLAWRQVDCHINNQYNTCFWMLVKSGKSKIQAQDYLKGTQTREKNELLSQQFGIEYNSLPVIFRMGSSVFRLKVLLLLSYSKILLVFHSRFLLL | failed
9 | MAKSPKFMVFHLRELIYTLVFILLGIILIISLVIMFYNRGNKQEKEENTGVYEPGVYTSCVTLNGNPMDVKVTLDDNHINSITVDNVSNTITTMYPLVEPAFNDIANQIVTNQSLENIKFDDNSKYTYTILYNAILDTIEKGKVGE | failed
10 | MSTSFTMIGGEGPNSYREHSKYQGALVIAAKEKINEAISTKLDIDFTSNLVNIADFGCSSGPNTFTAVQTLIDAVENKYKKESNIEGIEFQVFFNDSSNNDFNTLFKTLPPARLYFASGVPGSFFGRVLPKNSLHVGVSSYSLHFVSKVPKEIKDRDSLVWNKDIHCSGSSKEVVKLYLGQYKIDVGSFLTARAQELVSGGLLLLLGSCRPTGVQMFETVEGMMIDFIGSSLNEIANQGLIDQQKLDTFKLPIYAPNVDELKQIIEDNKCFTIEAFEKISHAKGEYPLDPEYLTSAFKVTVGGSVASLFGQDGMEKTYELVKEKTQEMLPQIAKAKPGMQYLIVLRRN | failed
11 | MQETDNLLKTLNVKSLLEALLVYTPKGYKDLNLLERFETGLSGVLEVGILEKRNYAKVLKIFAYSKRFYKNLELVFFNYSAFHHSQFKTGESLFIYGKLEQSSFNQAYIINTPKIITKFGKISLIFKKVKNHKKIQENLQKLISLENLKKEGVKENIAHLLLEIFFPTPHFVKDFETNKNFPSQHLNALKYIEMLFYMKNLERKKLQFGAKIACPNNNERLKAFIASLPFKLTRDQQNAIKEIQNDLTSSIACKRLIIGDVGCGKTMVILASMVLTYPNKTLLMAPTSILAKQLYNEALKFLPPYFEVELLLGGSYKKRSNHLFETITHVVIGTQALLFDKRDLNEFALVITDEQHRFGTKQRYQLEKMASSKGNKPHSLQFSATPIPRTLALAKSAFVKTTMIREIPYPKEIETLVLHKRDFKIVMEKISEEIAKNHQVIVVYPLVNESEKIPYLSLSEGASFWQKRFKKVYTTSGQDKNKEEVIEEFRESGSILLATTLIEVGISLPRLSVMVILAPERLGLATLHQLRGRVSRNGLKGYCFLCTIQEENERLEKFADELDGFKIAELDLEYRKSGDLLQGGEQSGNSFEYIDLAKDENIIAEVKRDFLKAASVSRGTFEN | failed
12 | MAVSLPNSFLQISPCVPSLQLRKPVMAAVKGGKQSVRRSSNTVVQITCRKKELHPEFHEDAKVYCNGELVMTTGGTKKEYVVDVWSGNHPFYLGNRSALMVDADQVEKFRKRFAGLSEIMEIPVLKGEIIMPTKKSKGPKGKKK | failed
13 | MEGKGSFSENLVKRLQLVKANRSHLAPLIDLLRSKVSKSVKRNKHFFRDYADQIYIVSSGFKEFILPIVTEFGIKEEHVMANTFTFDNDGNIIGCDANNPLSQDKGKIKLMEKLGLTGDVHVIGDGYTDYEIRGAGLASKFYAFTENVSRAAVTAKADSIAPSFDEILFQEKL | failed
14 | MSTPTPDTDVEQVGLANTAFYEAMERGDFETLSSLWLTPADLGVDEEYHDPADAGVVSCVHPGWPVLSGRGEVLRSYALIMANTEYIQFFLTDVHVSVTGDTALVTCTENILSGGPPPDDSDELGPLVGQLVVATNVFRRTPDGWKLWSHHASPVLAETGAEEGDESPD | not failed
15 | MKWLLVASAALYLFGSFRRPLFALGLGAGLAYLALRGISLGRLPLVGPHDTIAFFSASIGLMTLPFLFSPSLRNSSAFPWATGGTAAVFALFSLAFPALAMPLPPILNTLWFELHVALAFFAYALFTIGAIMGVLFLAGGERRLLDLQYRAALVGYTFFSGSMVAGGIWGYYAWGTYWLWTPKELWTSILWIFYTFWLHLRLRGAGGDRLLAWTGILGFGVMLFTYLGVSMLMKSSHSF | failed
16 | MKPRVEILMSTYNGEKFLAEQLDSILAQTHQYFVLTVRDDGSKDGTPDILSRYAATDERITYCVQENRGVVGSFYWLLKNSSPLSNYVAFSDQDDVWLPNKLERALDVLSRYDETLPLLYCSRVEYVSAGLGHLDDSPMMVRPVCLNNALIQNVATGCTVVMNKAARDLLLEREWPPQVLMHDWWSYIVVSAFGKVVYDDFVSIKYRQHGGNVIGGTVSFVSDYRSRIINFLSRRRKGVFGCYDQAYSFWLGYKDELKGESRGIVSQFIESKRSFLSRLNYLTSSQRVYRHRFIDDVLVRLLILSNKYLEHHHHHH | failed
17 | MDNSGIYVGLDIGTTSIKVIVAERVKGQMNVIGVGSARSNGLSRGVIVDIDKAAETIRSAVRQAEEKASIEIKKVIAGVPANLVKIERCRGMIAVADESKEINNEDVQNVAAAALVQSLPPEREVLDVIPDEFVVDGFDGIKDPRGMVGVRLEMHGTLFTGPKTIIHNTRKALEKAGLQIEQIVIAPLALSSLVLNDGEQDFGSIIIDMGGGQTTAAVIHDHQLKYTYVDQEGGQYITKDISVVLNTSIENAEKLKRDYGYADAQQASDDELFPVDVVGQSTPEQISEQYLAEIIEARLDQIFDKVKQHLDEIRALELPGGIVLTGGVAALPGITDLAAQRFGTRVRVFTPNQMGLRHPSFDEALAVIKYQAALSEVTLLVKSALTGDTRASVALEFADTTPAPSQPAAQPKKATKKQSAPQAPQEQADPDHKGTVERVKGFFNHFFD | failed
